Drawing on patent US20220177587A1, “METHODS AND USES OF VARIANT CD80 FUSION PROTEINS AND RELATED CONSTRUCTS” (Alpine Immune Sciences, Inc., priority 2018, published 2022), this text covers MFI, EC50 and Fold change to WT CD80 for 20 substances.

Test [1] deals with PD-L1 (human) (UniProt Q9NZQ7). The experiment in a line: flow cytometry, CHO cells stably expressing PD-L1. Background: In flow cytometry, cells or beads pass a laser one at a time.
The target of test [2] is CD28 (human) (UniProt P10747). In words: flow cytometry, Jurkat cells (CD28).
The target in test [3] is human CTLA-4 (human) (UniProt P16410). The experiment in a line: flow cytometry, CHO cells stably expressing CTLA4.
Sequence of human CTLA-4 (human) (P16410 36-223): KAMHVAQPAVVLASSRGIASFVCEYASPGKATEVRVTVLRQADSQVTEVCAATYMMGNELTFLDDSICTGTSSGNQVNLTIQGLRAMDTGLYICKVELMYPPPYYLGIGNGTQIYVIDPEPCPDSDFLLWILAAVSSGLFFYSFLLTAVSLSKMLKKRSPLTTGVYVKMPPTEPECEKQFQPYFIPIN
Test [4] has the same target. In words: flow cytometry, CHO cells expressing CTLA4.
Test [5] deals with PD-L1 (human) (UniProt Q9NZQ7). In words: flow cytometry, CHO cells expressing PD-L1.
Target sequence in this assay (Q9NZQ7 19-290): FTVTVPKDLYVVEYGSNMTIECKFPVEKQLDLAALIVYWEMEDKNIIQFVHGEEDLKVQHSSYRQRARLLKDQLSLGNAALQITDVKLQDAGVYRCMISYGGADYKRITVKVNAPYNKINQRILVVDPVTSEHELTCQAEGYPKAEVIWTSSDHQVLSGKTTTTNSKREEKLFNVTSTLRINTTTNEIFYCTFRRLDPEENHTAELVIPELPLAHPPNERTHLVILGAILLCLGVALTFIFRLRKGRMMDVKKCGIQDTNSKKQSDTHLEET

Sequence of wild-type CD80 IgV (SEQ ID NO: 150)-Fc (inert) with GSG4S linker (Fc fusion) (chain): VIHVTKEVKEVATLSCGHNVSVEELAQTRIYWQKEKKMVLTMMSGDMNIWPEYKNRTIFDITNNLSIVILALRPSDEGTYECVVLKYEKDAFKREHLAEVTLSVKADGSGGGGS

For the substance “wild-type CD80 ECD-Fc (inert), as in Example 12 (Fc fusion)”, the MFI at 33.3 nM in test [1] was determined as 161 MFI; in test [2] it was 57.8 MFI.
“CD80 E35D/M47V/N48K/V68M/K89N IgV-Fc, GS(G4S)5 linker (Fc fusion)”: the MFI at 33.3 nM in test [1] stood at 22700 MFI.
Regarding “variant CD80 IgV-Fc (inert) H18Y/A26N/E35D/M47F/V68M/A71G/D90G (Fc fusion)”, the MFI at 33.3 nM in test [1] stood at 26500 MFI; in test [2], 82.2 MFI.
For the substance “CD80 IgV-Fc H18Y/E35D/M47I/V68M/A71G/R94L (Fc fusion)”, the MFI at 33.3 nM is 14500 MFI in test [1] and 1900 MFI in test [2].
On the same counts, the results for “CD80 E35D/D46V/M47L/V68M/L85Q/E88D IgV-Fc, GS(G4S)3 linker (Fc fusion)” are 22600 MFI and 267 MFI.
In test [1], “wild-type CD80 IgV (SEQ ID NO: 150)-Fc (inert) with GSG4S linker (Fc fusion)” showed an MFI at 33.3 nM of 47 MFI.
For orientation: EC50 means the midpoint of the concentration-response curve. Substance “CD80 (E35D/D46E/M47V/V68M/D90G/K93E) ECD-Fc (Fc fusion)” displayed an MFI at 66.7 nM in test [1] of 287. In test [3], this substance displayed an EC50 of 10.5 nM and an MFI at 66.7 nM of 24600.
With “variant CD80 IgV-Fc (inert) A26P/E35D/M47I/V68M/A71G/D90G (Fc fusion)”, the MFI at 33.3 nM in test [2] turned out to be 8190 MFI; in test [3], 19800 MFI.
For “CD80 IgV-Fc Q33R/M47V/T62N/A71G (Fc fusion)”, the figures for the MFI at 33.3 nM in test [1] and in test [3] were 12200 MFI and 308 MFI, respectively.
Turning to “CD80 T13R/Q33L/E35D/M47L/V68M/L85M IgV-Fc (Fc fusion)”, the Fold change to WT CD80 in test [2] was determined as 0.5 fold; in test [5] it was 62.7 fold. The MFI at 33.3 nM was determined as 15.7 MFI in test [2], 141 MFI in test [4] and 3230 MFI in test [5].
As for “CD80 H18Y/E35D/M47I/V68M/Y87N IgV-Fc (Fc fusion)”, the MFI at 33.3 nM in test [2] amounted to 4040 MFI; in test [4], 18600 MFI; in test [5] it was 15000 MFI.
As for “variant CD80 IgV-Fc (inert) H18R/A26P/E35D/D46N/M47V/V68M/A71G/D90P (Fc fusion)”, the figures for the MFI at 33.3 nM in test [1] and in test [3] were 29300 MFI and 17300 MFI, respectively.
For the substance “CD80 T13R/Q33L/E35D/M47V/T62S/V68M/L85M IgV-Fc (Fc fusion)”, the Fold change to WT CD80 in test [2] was 0.5 fold; in test [5], 77 fold. For the same substance, the MFI at 33.3 nM in test [2] worked out at 16 MFI; in test [4] it was 105 MFI; in test [5], 3970 MFI.
Regarding “CD80 E35D/M47V/V68M/L85M IgV-Fc (Fc fusion)”, the MFI at 33.3 nM amounted to 201 MFI in test [2], 16000 MFI in test [4] and 9180 MFI in test [5].
As to “CD80 H18Y/E35D/M47L/Y53F/V68M/A71G IgV-Fc (Fc fusion)”, the Fold change to WT CD80 in test [2] was 0.5 fold; in test [5], 99.1 fold. Further, the MFI at 33.3 nM in test [2] is 15.7 MFI; in test [4], 146 MFI; in test [5], 5100 MFI.
Consider “CD80 IgV-Fc E35D/M47I/T62S/L85Q/E88D (Fc fusion)”, for which the results for the MFI at 33.3 nM in test [1] and in test [3] were 8420 MFI and 8910 MFI, respectively.
For the substance “CD80 E35D/M47V/N48K/V68M/K89N IgV-Fc, GS(G4S)3 linker (Fc fusion)”, the MFI at 33.3 nM in test [1] was 24200 MFI; in test [2], 2110 MFI.
In the case of “CD80 Q33R/E35D/M38I/M47L/V68M IgV-Fc (Fc fusion)”, the Fold change to WT CD80 in test [2] amounted to 0.5 fold; in test [5], 320 fold. For the same substance, the MFI at 33.3 nM is 15 MFI in test [2], 107 MFI in test [4] and 16500 MFI in test [5].
For “WT CD80 ECD-Fc (R&D Systems) (Fc fusion)”, in test [1], the concentration giving a half-maximal response (EC50) amounted to 31.2 nM and the MFI at 11.1 nM came out at 86 MFI. In test [2], the concentration giving a half-maximal response (EC50) came to 164 nM and the MFI at 11.1 nM stood at 139 MFI.
For the substance “CD80 H18Y/E35D/V68M/A71G/R94Q/E95V IgV-Fc (Fc fusion)”, the values for the MFI at 33.3 nM in test [2], in test [4] and in test [5] were 16 MFI, 18300 MFI and 15000 MFI, respectively.
